Target: full length Trk-A with a C-terminal (GGS)5 linker and eYFP or mTurquoise (human) (UniProt P04629)
Experiment: FRET or BRET

full length Trk-A with a C-terminal (GGS)5 linker and eYFP or mTurquoise, sequence (P04629 33-796): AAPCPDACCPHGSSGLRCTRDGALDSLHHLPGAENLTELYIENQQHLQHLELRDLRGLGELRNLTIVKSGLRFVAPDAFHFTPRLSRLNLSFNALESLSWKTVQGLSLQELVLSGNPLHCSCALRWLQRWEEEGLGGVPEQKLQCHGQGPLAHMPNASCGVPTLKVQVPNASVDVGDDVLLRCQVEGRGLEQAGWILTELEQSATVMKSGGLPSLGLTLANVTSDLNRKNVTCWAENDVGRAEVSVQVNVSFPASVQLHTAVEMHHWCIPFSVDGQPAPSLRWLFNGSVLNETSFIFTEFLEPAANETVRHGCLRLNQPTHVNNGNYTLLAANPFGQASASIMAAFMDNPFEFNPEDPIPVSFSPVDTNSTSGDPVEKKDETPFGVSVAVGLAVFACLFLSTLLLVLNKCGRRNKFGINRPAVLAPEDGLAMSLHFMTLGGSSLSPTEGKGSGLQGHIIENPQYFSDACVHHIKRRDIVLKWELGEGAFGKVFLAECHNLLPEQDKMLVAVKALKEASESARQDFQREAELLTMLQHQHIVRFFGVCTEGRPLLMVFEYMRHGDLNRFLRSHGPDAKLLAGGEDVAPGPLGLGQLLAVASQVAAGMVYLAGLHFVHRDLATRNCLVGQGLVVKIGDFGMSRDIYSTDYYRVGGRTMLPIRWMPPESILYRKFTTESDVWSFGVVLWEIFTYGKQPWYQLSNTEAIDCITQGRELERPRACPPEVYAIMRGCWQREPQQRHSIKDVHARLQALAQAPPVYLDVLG

stoichiometry N: 2
Substance: full length Trk-A with a C-terminal (GGS)5 linker and eYFP or mTurquoise (from UniProt P04629 33-796) (receptor)
